Substrate in the series: CC(=O)N[C@H]1[C@H](O[C@H]2[C@H](O)[C@@H](NC(C)=O)[C@@H](OP(=O)(O)OP(=O)(O)OCCC(C)CCCC(C)CCCC(C)CCCC(C)C)O[C@@H]2CO)O[C@H](CO)[C@@H](O[C@@H]2O[C@H](CO[C@H]3O[C@H](CO)[C@@H](O)[C@H](O)[C@@H]3O)[C@@H](O)[C@H](O)[C@@H]2O)[C@@H]1O
Description: UPLC-MS mannosyltransferase assay, nonlinear regression. It counts as biochemical, Homo sapiens. The note with it: 2 mM GDP-Man, 10 mM MgCl2, pH 6.0, 0.05% NP-40, 37 °C, 10 min, substrate range 8-200 μM, substrate not further purified.

B1: hAlg2 (Trx-hAlg2) (Homo sapiens) (protein)
chain: MAEEQGRERDSVPKPSVLFLHPDLGVGGAERLVLDAALALQARGCSVKIWTAHYDPGHCFAESRELPVRCAGDWLPRGLGWGGRGAAVCAYVRMVFLALYVLFLADEEFDVVVCDQVSACIPVFRLARRRKKILFYCHFPDLLLTKRDSFLKRLYRAPIDWIEEYTTGMADCILVNSQFTAAVFKETFKSLSHIDPDVLYPSLNVTSFDSVVPEKLDDLVPKGKKFLLLSINRYERKKNLTLALEALVQLRGRLTSQDWERVHLIVAGGYDERVLENVEHYQELKKMVQQSDLGQYVTFLRSFSDKQKISLLHSCTCVLYTPSNEHFGIVPLEAMYMQCPVIAVNSGGPLESIDHSVTGFLCEPDPVHFSEAIEKFIREPSLKATMGLAGRARVKEKFSPEAFTEQLYRYVTKLLV
notes: N-terminal His6-Trx tag kept (pET32), expressed in E. coli Rosetta (DE3), HisTrap purified; about 57 kDa on SDS-PAGE
What is called Km is the concentration of substrate that gives half-maximal velocity. For orientation: kcat means the maximal rate divided by the concentration of active sites. For the protein B1, the Km was 136.7 ± 30.4 µM and the kcat worked out at 63.2 ± 7.8 min⁻¹.

The record behind these values is paper PMC8827073, “Topological and enzymatic analysis of human Alg2 mannosyltransferase reveals its role in lipid-linked oligosaccharide biosynthetic pathway” (Communications Biology, 2022).
